The source of these data is patent US20100234450, “Molecular targeting agents” (published 2010).

The target of data set [1] is T1, PSMA (prostate-specific membrane antigen) (Homo sapiens, UniProt Q04609 Q04609:1-750). The data set is described as follows: cell binding to PSMA-positive 22Rv1(1.7) cells. Particulars: tags: none, endogenous on 22Rv1(1.7) and LNCaP prostate cancer cells, chain copies: 2.
Data set [2] deals with T1, PSMA (prostate-specific membrane …). In words: cell binding to PSMA-positive 22Rv1(1.7) cells; Bmax much lower on PSMA-negative 22Rv1(wmr) cells. Particulars: tags: none; endogenous on 22Rv1(1.7) and LNCaP prostate cancer cells; chain copies: 2; label: 111In.

T1 sequence (Q04609 whole entry, one chain of several): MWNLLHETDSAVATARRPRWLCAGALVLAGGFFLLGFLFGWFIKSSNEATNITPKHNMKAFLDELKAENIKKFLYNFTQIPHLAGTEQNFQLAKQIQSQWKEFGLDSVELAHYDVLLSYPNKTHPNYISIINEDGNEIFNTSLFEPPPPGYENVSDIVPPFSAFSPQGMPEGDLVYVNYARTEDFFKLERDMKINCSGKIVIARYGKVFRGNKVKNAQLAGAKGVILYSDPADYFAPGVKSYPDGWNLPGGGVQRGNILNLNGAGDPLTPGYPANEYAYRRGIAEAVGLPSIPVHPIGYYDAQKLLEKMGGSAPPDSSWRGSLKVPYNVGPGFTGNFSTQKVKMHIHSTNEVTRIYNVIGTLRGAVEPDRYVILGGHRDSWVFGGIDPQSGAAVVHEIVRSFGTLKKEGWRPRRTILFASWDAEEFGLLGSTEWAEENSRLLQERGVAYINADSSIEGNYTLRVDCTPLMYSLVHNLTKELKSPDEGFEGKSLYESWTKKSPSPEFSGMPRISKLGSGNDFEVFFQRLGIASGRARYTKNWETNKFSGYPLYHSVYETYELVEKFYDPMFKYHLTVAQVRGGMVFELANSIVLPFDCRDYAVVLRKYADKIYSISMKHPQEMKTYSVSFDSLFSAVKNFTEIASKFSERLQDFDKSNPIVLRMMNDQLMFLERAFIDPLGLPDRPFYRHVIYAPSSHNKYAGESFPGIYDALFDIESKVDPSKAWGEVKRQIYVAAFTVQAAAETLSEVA

As for GGGAGGACGAUGCGGAUCAGCCAUGUUUACGUCACUCCU (ssRNA) [A10-3.2 (32P)], binding in data set [1] (label: 5'-32P) was put at a Kd of 106 nM.

GGGAGGACGAUGCGGAUCAGCCAUGUUUACGUCACUCCU (ssRNA, 5'-DOTA chelator via linker) [111In-DOTA-A10-3.2] returned a Kd in data set [2] of 119 nM. This lies in the sub-micromolar range.

In the case of GGGAGGACGAUGCGGAUCAGCCAUGUUUACGUCACUCCU (ssRNA, 5'-NOTA chelator via linker) [64Cu-NOTA-A10-3.2], in data set [1] (label: 64Cu), the Kd came out at 131 nM.

What is called Kd is the constant that tells how readily two partners part at equilibrium.
